Data taken from article PMC6113376.

Experiments:
[1] = target: porcine GP2 isoform 1, incompletely deglycosylated under native conditions (pig); assay: static adhesion assay (bacteria on coated protein); porcine GP2 incubated in native conditions with (NE) or without (N) deglycosylation enzymes, coated; S. Typhimurium 5744 wild type and its fimH deletion mutant added
[2] = target: porcine GP2 isoform 2, incompletely deglycosylated under native conditions (pig); assay: as above

**Q.** For “FimH of Salmonella Typhimurium wild type strain Tym5744 (from UniProt P37925 23-335) (natural protein)”, which percent decrease of binding against GP2 that was not digested [1] is on record?
**A.** 59%

**Q.** What about the percent decrease of binding against GP2 that was not digested [2] of the same substance?
**A.** 53%
